The conditions of the data set: Kitasatospora aureofaciens, pH 7, CD, MOPS 30 mM, whole UniProt chain shown; for denaturant m value / denaturant midpoint (higher = more stable) / unfolding free energy: 25 °C.

As a reminder, the Tm is the temperature at the midpoint of the melting transition.

B1: Guanyl-specific ribonuclease Sa wild type, P05798 (protein)
chain: DVSGTVCLSALPPEATDTLNLIASDGPFPYSQDGVVFQNRESVLPTQSYGYYHEYTVITPGARTRGTRRIITGEATQEDYYTGDHYATFSLIDQTC
Consider B1, for which, under “GdnHCl”, the denaturant m value worked out at 2.43 kcal/mol/M, the “denaturant midpoint (higher = more stable)” value was found to be 2.99 M and the unfolding free energy was 7.3 kcal/mol. Further, for the setting “Urea”, the denaturant m value was determined as 0.96 kcal/mol/M, the “denaturant midpoint (higher = more stable)” value was found to be 6.06 M and the unfolding free energy was 5.8 kcal/mol. For the same protein, where the note is “Thermal”, the Tm was found to be 49.3 °C, the “heat capacity change of unfolding” value amounted to 1.52 kcal/mol/K and the “unfolding enthalpy (van 't Hoff)” value stood at 93 kcal/mol.

The values are drawn from FireProtDB (doi:10.1002/pro.381).
